This note sets out measurements from FireProtDB (doi:10.1021/bi980431i).

The labels stand for the following.
B1: Lysozyme C, P61626 (parent)
chain: MKALIVLGLVLLSVTVQGKVFERCELARTLKRLGMDGYRGISLANWMCLAKWESGYNTRATNYNAGDRSTDYGIFQINSRYWCNDGKTPGAVNACHLSCSALLQDNIADAVACAKRVVRDPQGIRAWVAWRNRCQNRDVRQYVQGCGV

“And” between values parts separate entries of the source, which are not always exact repeats. Equal entries are not always repeated.

One data set covers variants of B1. To be noted: Homo sapiens; pH 2.7; 64.9 °C; Thermal; DSC; glycine 0.05 M; reversible: yes; structure 1LZ1; whole UniProt chain shown.
Turning to MKALIVLGLVLLSVTVQGKVFERCELARTLKRLGMDGYRGISLANWMCLAKWESGFNTRATNYNAGDRSTDYGIFQINSRYWCNDGKTPGAVNACHLSCSALLQDNIADAVACAKRVVRDPQGIRAWVAWRNRCQNRDVRQYVQGCGV [Y56F], the “ddG of mutation (higher = less stable)” value came out at 0.19 kcal/mol and the “heat capacity change of unfolding” value was 1.29 kcal/mol/K.
On to MKALIVLGLVLLSVTVQGKVFERCELARTLKRLGMDGYRGISLANWMCLAKWESGYNTRATNYNAGDRSTDYGIFQINSRYWCNDGKTPGAVNACHLSCSALLQDNIADAVACAKRVVRDPQGIRAWVAWRNRCQNRDVRQFVQGCGV [Y142F], for which the “ddG of mutation (higher = less stable)” value worked out at 0.36 kcal/mol and the “heat capacity change of unfolding” value turned out to be 1.46 kcal/mol/K.
In the case of MKALIVLGLVLLSVTVQGKVFERCELARTLKRLGMDGYRGISLANWMCLAKWESGYNTRATNFNAGDRSTDYGIFQINSRYWCNDGKTPGAVNACHLSCSALLQDNIADAVACAKRVVRDPQGIRAWVAWRNRCQNRDVRQYVQGCGV [Y63F], the “ddG of mutation (higher = less stable)” value is -0.07 kcal/mol and the “heat capacity change of unfolding” value turned out to be 1.1 kcal/mol/K.

Staying with this data set, now noted: Homo sapiens; pH 2.7; Thermal; DSC; glycine 0.05 M; reversible: yes; structure 1LZ1; whole UniProt chain shown.
Consider MKALIVLGLVLLSVTVQGKVFERCELARTLKRLGMDGYRGISLANWMCLAKWESGFNTRATNYNAGDRSTDYGIFQINSRYWCNDGKTPGAVNACHLSCSALLQDNIADAVACAKRVVRDPQGIRAWVAWRNRCQNRDVRQYVQGCGV [Y56F], for which the Tm (commonly the temperature at the midpoint of the melting transition) came out at 64.3 °C; the “change of melting temperature, mutant - wild type (higher = more stable)” value (“change of melting temperature, mutant” for short) was -0.6 °C; the “heat capacity change of unfolding” value was 1.29 kcal/mol/K; the “unfolding enthalpy (calorimetric)” value turned out to be 114 kcal/mol. For the same variant, the “unfolding enthalpy (van 't Hoff)” value worked out at 117 kcal/mol.
On to MKALIVLGLVLLSVTVQGKVFERCELARTLKRLGMDGYRGISLANWMCLAKWESGYNTRATNYNAGDRSTDYGIFQINSRYWCNDGKTPGAVNACHLSCSALLQDNIADAVACAKRVVRDPQGIRAWVAWRNRCQNRDVRQFVQGCGV [Y142F], for which the melting temperature (Tm) was 63.8 °C and 64 °C; the “change of melting temperature, mutant” value was -1.1 °C; the “heat capacity change of unfolding” value is 1.46 kcal/mol/K and 1.53 kcal/mol/K; the “unfolding enthalpy (calorimetric)” value was 114 kcal/mol and 113 kcal/mol. For the same variant, the “unfolding enthalpy (van 't Hoff)” value was 119 kcal/mol and 118 kcal/mol.
On to MKALIVLGLVLLSVTVQGKVFERCELARTLKRLGMDGYRGISLANWMCLAKWESGYNTRATNFNAGDRSTDYGIFQINSRYWCNDGKTPGAVNACHLSCSALLQDNIADAVACAKRVVRDPQGIRAWVAWRNRCQNRDVRQYVQGCGV [Y63F], for which the Tm is 65.1 °C; the “change of melting temperature, mutant” value worked out at 0.2 °C; the “heat capacity change of unfolding” value amounted to 1.1 kcal/mol/K; the “unfolding enthalpy (calorimetric)” value was 112 kcal/mol. Also, the “unfolding enthalpy (van 't Hoff)” value stood at 118 kcal/mol.

Still in this data set, the particulars now being: Homo sapiens; pH 2.71; Thermal; DSC; glycine 0.05 M; reversible: yes; structure 1LZ1; whole UniProt chain shown.
Turning to MKALIVLGLVLLSVTVQGKVFERCELARTLKRLGMDGYRGISLANWMCLAKWESGFNTRATNYNAGDRSTDYGIFQINSRYWCNDGKTPGAVNACHLSCSALLQDNIADAVACAKRVVRDPQGIRAWVAWRNRCQNRDVRQYVQGCGV [Y56F], the melting temperature (Tm) is 64.6 °C, the “heat capacity change of unfolding” value amounted to 1.03 kcal/mol/K, the “unfolding enthalpy (calorimetric)” value is 113 kcal/mol and the “unfolding enthalpy (van 't Hoff)” value worked out at 117 kcal/mol.
On to MKALIVLGLVLLSVTVQGKVFERCELARTLKRLGMDGYRGISLANWMCLAKWESGYNTRATNFNAGDRSTDYGIFQINSRYWCNDGKTPGAVNACHLSCSALLQDNIADAVACAKRVVRDPQGIRAWVAWRNRCQNRDVRQYVQGCGV [Y63F], for which the Tm stood at 64.9 °C, the “heat capacity change of unfolding” value amounted to 1.15 kcal/mol/K, the “unfolding enthalpy (calorimetric)” value turned out to be 111 kcal/mol and the “unfolding enthalpy (van 't Hoff)” value came out at 117 kcal/mol.

The data set is the same for the next values; noted with them: Homo sapiens; pH 2.92; Thermal; DSC; glycine 0.05 M; reversible: yes; structure 1LZ1; whole UniProt chain shown.
As for MKALIVLGLVLLSVTVQGKVFERCELARTLKRLGMDGYRGISLANWMCLAKWESGFNTRATNYNAGDRSTDYGIFQINSRYWCNDGKTPGAVNACHLSCSALLQDNIADAVACAKRVVRDPQGIRAWVAWRNRCQNRDVRQYVQGCGV [Y56F], the midpoint of thermal melting (Tm) was 67.2 °C, the “heat capacity change of unfolding” value amounted to 1.46 kcal/mol/K, the “unfolding enthalpy (calorimetric)” value was found to be 117 kcal/mol and the “unfolding enthalpy (van 't Hoff)” value was found to be 121 kcal/mol.

The same data set, now with this note: Homo sapiens; pH 3.1; Thermal; DSC; glycine 0.05 M; reversible: yes; structure 1LZ1; whole UniProt chain shown.
In the case of MKALIVLGLVLLSVTVQGKVFERCELARTLKRLGMDGYRGISLANWMCLAKWESGFNTRATNYNAGDRSTDYGIFQINSRYWCNDGKTPGAVNACHLSCSALLQDNIADAVACAKRVVRDPQGIRAWVAWRNRCQNRDVRQYVQGCGV [Y56F], the Tm was determined as 70.3 °C, the “heat capacity change of unfolding” value came out at 0.96 kcal/mol/K, the “unfolding enthalpy (calorimetric)” value was determined as 121 kcal/mol and the “unfolding enthalpy (van 't Hoff)” value turned out to be 124 kcal/mol.

Staying with this data set, now noted: Homo sapiens; pH 3.25; Thermal; DSC; glycine 0.05 M; reversible: Yes; structure 1LZ1; whole UniProt chain shown.
For the variant MKALIVLGLVLLSVTVQGKVFERCELARTLKRLGMDGYRGISLANWMCLAKWESGFNTRATNYNAGDRSTDYGIFQINSRYWCNDGKTPGAVNACHLSCSALLQDNIADAVACAKRVVRDPQGIRAWVAWRNRCQNRDVRQYVQGCGV [Y56F], the midpoint of thermal melting (Tm) amounted to 72.4 °C, the “heat capacity change of unfolding” value turned out to be 1.12 kcal/mol/K, the “unfolding enthalpy (calorimetric)” value was 123 kcal/mol and the “unfolding enthalpy (van 't Hoff)” value amounted to 126 kcal/mol.

The same data set, now with this note: Homo sapiens; pH 2.53; Thermal; DSC; glycine 0.05 M; reversible: yes; structure 1LZ1; whole UniProt chain shown.
In the case of MKALIVLGLVLLSVTVQGKVFERCELARTLKRLGMDGYRGISLANWMCLAKWESGYNTRATNYNAGDRSTDYGIFQINSRYWCNDGKTPGAVNACHLSCSALLQDNIADAVACAKRVVRDPQGIRAWVAWRNRCQNRDVRQFVQGCGV [Y142F], the Tm is 60.8 °C, the “heat capacity change of unfolding” value is 1.48 kcal/mol/K, the “unfolding enthalpy (calorimetric)” value stood at 108 kcal/mol and the “unfolding enthalpy (van 't Hoff)” value amounted to 112 kcal/mol.

The data set is the same for the next values; noted with them: Homo sapiens; pH 2.68; Thermal; DSC; glycine 0.05 M; reversible: yes; structure 1LZ1; whole UniProt chain shown.
As to MKALIVLGLVLLSVTVQGKVFERCELARTLKRLGMDGYRGISLANWMCLAKWESGYNTRATNYNAGDRSTDYGIFQINSRYWCNDGKTPGAVNACHLSCSALLQDNIADAVACAKRVVRDPQGIRAWVAWRNRCQNRDVRQFVQGCGV [Y142F], the Tm stood at 63.4 °C, the “heat capacity change of unfolding” value came to 1.08 kcal/mol/K, the “unfolding enthalpy (calorimetric)” value amounted to 112 kcal/mol and the “unfolding enthalpy (van 't Hoff)” value worked out at 116 kcal/mol.

Staying with this data set, now noted: Homo sapiens; pH 3.06; Thermal; DSC; glycine 0.05 M; reversible: yes; structure 1LZ1; whole UniProt chain shown.
For MKALIVLGLVLLSVTVQGKVFERCELARTLKRLGMDGYRGISLANWMCLAKWESGYNTRATNYNAGDRSTDYGIFQINSRYWCNDGKTPGAVNACHLSCSALLQDNIADAVACAKRVVRDPQGIRAWVAWRNRCQNRDVRQFVQGCGV [Y142F], the Tm was found to be 69.7 °C, the “heat capacity change of unfolding” value was found to be 1.82 kcal/mol/K, the “unfolding enthalpy (calorimetric)” value was determined as 121 kcal/mol and the “unfolding enthalpy (van 't Hoff)” value was 125 kcal/mol.

Still in this data set, the particulars now being: Homo sapiens; pH 2.48; Thermal; DSC; glycine 0.05 M; reversible: yes; structure 1LZ1; whole UniProt chain shown.
Take MKALIVLGLVLLSVTVQGKVFERCELARTLKRLGMDGYRGISLANWMCLAKWESGYNTRATNFNAGDRSTDYGIFQINSRYWCNDGKTPGAVNACHLSCSALLQDNIADAVACAKRVVRDPQGIRAWVAWRNRCQNRDVRQYVQGCGV [Y63F]: the Tm was determined as 61.4 °C, the “heat capacity change of unfolding” value was found to be 0.89 kcal/mol/K, the “unfolding enthalpy (calorimetric)” value was 109 kcal/mol and the “unfolding enthalpy (van 't Hoff)” value amounted to 115 kcal/mol.

Still in this data set, the particulars now being: Homo sapiens; pH 2.67; Thermal; DSC; glycine 0.05 M; reversible: yes; structure 1LZ1; whole UniProt chain shown.
Turning to MKALIVLGLVLLSVTVQGKVFERCELARTLKRLGMDGYRGISLANWMCLAKWESGYNTRATNFNAGDRSTDYGIFQINSRYWCNDGKTPGAVNACHLSCSALLQDNIADAVACAKRVVRDPQGIRAWVAWRNRCQNRDVRQYVQGCGV [Y63F], the Tm was determined as 64.6 °C, the “heat capacity change of unfolding” value worked out at 1.34 kcal/mol/K, the “unfolding enthalpy (calorimetric)” value was found to be 112 kcal/mol and the “unfolding enthalpy (van 't Hoff)” value was determined as 117 kcal/mol.

Staying with this data set, now noted: Homo sapiens; pH 2.89; Thermal; DSC; glycine 0.05 M; reversible: yes; structure 1LZ1; whole UniProt chain shown.
As for MKALIVLGLVLLSVTVQGKVFERCELARTLKRLGMDGYRGISLANWMCLAKWESGYNTRATNFNAGDRSTDYGIFQINSRYWCNDGKTPGAVNACHLSCSALLQDNIADAVACAKRVVRDPQGIRAWVAWRNRCQNRDVRQYVQGCGV [Y63F], the Tm is 68.7 °C, the “heat capacity change of unfolding” value came out at 0.65 kcal/mol/K, the “unfolding enthalpy (calorimetric)” value came out at 116 kcal/mol and the “unfolding enthalpy (van 't Hoff)” value is 122 kcal/mol.

Staying with this data set, now noted: Homo sapiens; pH 3.13; Thermal; DSC; glycine 0.05 M; reversible: yes; structure 1LZ1; whole UniProt chain shown.
For MKALIVLGLVLLSVTVQGKVFERCELARTLKRLGMDGYRGISLANWMCLAKWESGYNTRATNFNAGDRSTDYGIFQINSRYWCNDGKTPGAVNACHLSCSALLQDNIADAVACAKRVVRDPQGIRAWVAWRNRCQNRDVRQYVQGCGV [Y63F], the Tm was found to be 72.5 °C, the “heat capacity change of unfolding” value was 1.63 kcal/mol/K, the “unfolding enthalpy (calorimetric)” value was determined as 121 kcal/mol and the “unfolding enthalpy (van 't Hoff)” value stood at 127 kcal/mol.
